Reference: PMC11796359, “Identification and characterization of the functional tetrameric UDP-glucose pyrophosphorylase from Klebsiella pneumoniae” (mBio, 2024)

Tests used:
[1] = biological target: the molecule itself; test: SEC; Superose 6 Increase 10/300 GL; 50 mM Tris-HCl (pH 8.0), 300 mM NaCl, 10 mM MgCl2; oligomeric state calculated from elution volumes of proteins of known size
[2] = biological target: the molecule itself; test: native gel or EMSA; blue native PAGE, 4.5 µg of each protein on a uniform 12% native gel, followed by in-gel activity staining

| Protein | stoichiometry N [1] | stoichiometry N [2] |
| --- | --- | --- |
| KpUGP E69A (enzyme, UDP-glucose pyrophosphorylase (galU gene product) of K. pneumoniae DSM 30104; mutant of Strep-KpUGP; tag as in m1; no cleavage described) MAALNSKVRKAVIPVAGLGTRMLPATKAIPKEMLPLVDKPLIQYVVNECIAAGITEIVLVTHSSKNSIANHFDTSFELEAMLEKRVKRQLLEEVQSICPPHVTIMQVRQGLAKGLGHAVLCAHPVVGDEPVAVILPDVILDEYESDLSRDNLAEMISRFDETGASQIMVEPVEDVTAYGVVDCKGESLKPGESVPMVGVVEKPKADVAPSNLAVVGRYVLSADIWPLLAKTPPGAGDEIQLTDAIDMLIEKETVEAYHMKGKSHDCGNKLGYMQAFVEYGIRHKTLGDDFKAWLETAVAK | 4.4 | 4 |
| KpUGP E77A (enzyme, UDP-glucose pyrophosphorylase (galU gene product) of K. pneumoniae DSM 30104; mutant of Strep-KpUGP; tag as in m1; no cleavage described) MAALNSKVRKAVIPVAGLGTRMLPATKAIPKEMLPLVDKPLIQYVVNECIAAGITEIVLVTHSSKNSIENHFDTSFALEAMLEKRVKRQLLEEVQSICPPHVTIMQVRQGLAKGLGHAVLCAHPVVGDEPVAVILPDVILDEYESDLSRDNLAEMISRFDETGASQIMVEPVEDVTAYGVVDCKGESLKPGESVPMVGVVEKPKADVAPSNLAVVGRYVLSADIWPLLAKTPPGAGDEIQLTDAIDMLIEKETVEAYHMKGKSHDCGNKLGYMQAFVEYGIRHKTLGDDFKAWLETAVAK | 4.5 | 4 |
| KpUGP D73A (enzyme, UDP-glucose pyrophosphorylase (galU gene product) of K. pneumoniae DSM 30104; mutant of Strep-KpUGP; tag as in m1; no cleavage described; dissociates progressively during storage on ice) MAALNSKVRKAVIPVAGLGTRMLPATKAIPKEMLPLVDKPLIQYVVNECIAAGITEIVLVTHSSKNSIENHFATSFELEAMLEKRVKRQLLEEVQSICPPHVTIMQVRQGLAKGLGHAVLCAHPVVGDEPVAVILPDVILDEYESDLSRDNLAEMISRFDETGASQIMVEPVEDVTAYGVVDCKGESLKPGESVPMVGVVEKPKADVAPSNLAVVGRYVLSADIWPLLAKTPPGAGDEIQLTDAIDMLIEKETVEAYHMKGKSHDCGNKLGYMQAFVEYGIRHKTLGDDFKAWLETAVAK | 2.7 | – |
| KpUGP E238Q (enzyme, UDP-glucose pyrophosphorylase (galU gene product) of K. pneumoniae DSM 30104; mutant of Strep-KpUGP; tag as in m1; no cleavage described) MAALNSKVRKAVIPVAGLGTRMLPATKAIPKEMLPLVDKPLIQYVVNECIAAGITEIVLVTHSSKNSIENHFDTSFELEAMLEKRVKRQLLEEVQSICPPHVTIMQVRQGLAKGLGHAVLCAHPVVGDEPVAVILPDVILDEYESDLSRDNLAEMISRFDETGASQIMVEPVEDVTAYGVVDCKGESLKPGESVPMVGVVEKPKADVAPSNLAVVGRYVLSADIWPLLAKTPPGAGDQIQLTDAIDMLIEKETVEAYHMKGKSHDCGNKLGYMQAFVEYGIRHKTLGDDFKAWLETAVAK | 4.4 | 4 |
| KpUGP D73N (enzyme, UDP-glucose pyrophosphorylase (galU gene product) of K. pneumoniae DSM 30104; mutant of Strep-KpUGP; tag as in m1; no cleavage described) MAALNSKVRKAVIPVAGLGTRMLPATKAIPKEMLPLVDKPLIQYVVNECIAAGITEIVLVTHSSKNSIENHFNTSFELEAMLEKRVKRQLLEEVQSICPPHVTIMQVRQGLAKGLGHAVLCAHPVVGDEPVAVILPDVILDEYESDLSRDNLAEMISRFDETGASQIMVEPVEDVTAYGVVDCKGESLKPGESVPMVGVVEKPKADVAPSNLAVVGRYVLSADIWPLLAKTPPGAGDEIQLTDAIDMLIEKETVEAYHMKGKSHDCGNKLGYMQAFVEYGIRHKTLGDDFKAWLETAVAK | 2.4 | – |
| KpUGP K65A (enzyme, UDP-glucose pyrophosphorylase (galU gene product) of K. pneumoniae DSM 30104; mutant of Strep-KpUGP; tag as in m1; no cleavage described) MAALNSKVRKAVIPVAGLGTRMLPATKAIPKEMLPLVDKPLIQYVVNECIAAGITEIVLVTHSSANSIENHFDTSFELEAMLEKRVKRQLLEEVQSICPPHVTIMQVRQGLAKGLGHAVLCAHPVVGDEPVAVILPDVILDEYESDLSRDNLAEMISRFDETGASQIMVEPVEDVTAYGVVDCKGESLKPGESVPMVGVVEKPKADVAPSNLAVVGRYVLSADIWPLLAKTPPGAGDEIQLTDAIDMLIEKETVEAYHMKGKSHDCGNKLGYMQAFVEYGIRHKTLGDDFKAWLETAVAK | 2 | – |
| KpUGP K27A (enzyme, UDP-glucose pyrophosphorylase (galU gene product) of K. pneumoniae DSM 30104; mutant of Strep-KpUGP; tag as in m1; no cleavage described) MAALNSKVRKAVIPVAGLGTRMLPATAAIPKEMLPLVDKPLIQYVVNECIAAGITEIVLVTHSSKNSIENHFDTSFELEAMLEKRVKRQLLEEVQSICPPHVTIMQVRQGLAKGLGHAVLCAHPVVGDEPVAVILPDVILDEYESDLSRDNLAEMISRFDETGASQIMVEPVEDVTAYGVVDCKGESLKPGESVPMVGVVEKPKADVAPSNLAVVGRYVLSADIWPLLAKTPPGAGDEIQLTDAIDMLIEKETVEAYHMKGKSHDCGNKLGYMQAFVEYGIRHKTLGDDFKAWLETAVAK | 2.1 | – |
| KpUGP R108K (enzyme, UDP-glucose pyrophosphorylase (galU gene product) of K. pneumoniae DSM 30104; mutant of Strep-KpUGP; tag as in m1; no cleavage described; also called R108R (as printed once in the text)) MAALNSKVRKAVIPVAGLGTRMLPATKAIPKEMLPLVDKPLIQYVVNECIAAGITEIVLVTHSSKNSIENHFDTSFELEAMLEKRVKRQLLEEVQSICPPHVTIMQVKQGLAKGLGHAVLCAHPVVGDEPVAVILPDVILDEYESDLSRDNLAEMISRFDETGASQIMVEPVEDVTAYGVVDCKGESLKPGESVPMVGVVEKPKADVAPSNLAVVGRYVLSADIWPLLAKTPPGAGDEIQLTDAIDMLIEKETVEAYHMKGKSHDCGNKLGYMQAFVEYGIRHKTLGDDFKAWLETAVAK | 2.4 | – |
| KpUGP E77Q (enzyme, UDP-glucose pyrophosphorylase (galU gene product) of K. pneumoniae DSM 30104; mutant of Strep-KpUGP; tag as in m1; no cleavage described) MAALNSKVRKAVIPVAGLGTRMLPATKAIPKEMLPLVDKPLIQYVVNECIAAGITEIVLVTHSSKNSIENHFDTSFQLEAMLEKRVKRQLLEEVQSICPPHVTIMQVRQGLAKGLGHAVLCAHPVVGDEPVAVILPDVILDEYESDLSRDNLAEMISRFDETGASQIMVEPVEDVTAYGVVDCKGESLKPGESVPMVGVVEKPKADVAPSNLAVVGRYVLSADIWPLLAKTPPGAGDEIQLTDAIDMLIEKETVEAYHMKGKSHDCGNKLGYMQAFVEYGIRHKTLGDDFKAWLETAVAK | 4.6 | 4 |
| KpUGP F276A (enzyme, UDP-glucose pyrophosphorylase (galU gene product) of K. pneumoniae DSM 30104; mutant of Strep-KpUGP; tag as in m1; no cleavage described) MAALNSKVRKAVIPVAGLGTRMLPATKAIPKEMLPLVDKPLIQYVVNECIAAGITEIVLVTHSSKNSIENHFDTSFELEAMLEKRVKRQLLEEVQSICPPHVTIMQVRQGLAKGLGHAVLCAHPVVGDEPVAVILPDVILDEYESDLSRDNLAEMISRFDETGASQIMVEPVEDVTAYGVVDCKGESLKPGESVPMVGVVEKPKADVAPSNLAVVGRYVLSADIWPLLAKTPPGAGDEIQLTDAIDMLIEKETVEAYHMKGKSHDCGNKLGYMQAAVEYGIRHKTLGDDFKAWLETAVAK | 4.6 | 4 |
| KpUGP F276H (enzyme, UDP-glucose pyrophosphorylase (galU gene product) of K. pneumoniae DSM 30104; mutant of Strep-KpUGP; tag as in m1; no cleavage described) MAALNSKVRKAVIPVAGLGTRMLPATKAIPKEMLPLVDKPLIQYVVNECIAAGITEIVLVTHSSKNSIENHFDTSFELEAMLEKRVKRQLLEEVQSICPPHVTIMQVRQGLAKGLGHAVLCAHPVVGDEPVAVILPDVILDEYESDLSRDNLAEMISRFDETGASQIMVEPVEDVTAYGVVDCKGESLKPGESVPMVGVVEKPKADVAPSNLAVVGRYVLSADIWPLLAKTPPGAGDEIQLTDAIDMLIEKETVEAYHMKGKSHDCGNKLGYMQAHVEYGIRHKTLGDDFKAWLETAVAK | 4.5 | 4 |
| KpUGP K27Q (enzyme, UDP-glucose pyrophosphorylase (galU gene product) of K. pneumoniae DSM 30104; mutant of Strep-KpUGP; tag as in m1; no cleavage described; eluted predominantly as dimers) MAALNSKVRKAVIPVAGLGTRMLPATQAIPKEMLPLVDKPLIQYVVNECIAAGITEIVLVTHSSKNSIENHFDTSFELEAMLEKRVKRQLLEEVQSICPPHVTIMQVRQGLAKGLGHAVLCAHPVVGDEPVAVILPDVILDEYESDLSRDNLAEMISRFDETGASQIMVEPVEDVTAYGVVDCKGESLKPGESVPMVGVVEKPKADVAPSNLAVVGRYVLSADIWPLLAKTPPGAGDEIQLTDAIDMLIEKETVEAYHMKGKSHDCGNKLGYMQAFVEYGIRHKTLGDDFKAWLETAVAK | 2.2 | – |
| KpUGP K65R (enzyme, UDP-glucose pyrophosphorylase (galU gene product) of K. pneumoniae DSM 30104; mutant of Strep-KpUGP; tag as in m1; no cleavage described) MAALNSKVRKAVIPVAGLGTRMLPATKAIPKEMLPLVDKPLIQYVVNECIAAGITEIVLVTHSSRNSIENHFDTSFELEAMLEKRVKRQLLEEVQSICPPHVTIMQVRQGLAKGLGHAVLCAHPVVGDEPVAVILPDVILDEYESDLSRDNLAEMISRFDETGASQIMVEPVEDVTAYGVVDCKGESLKPGESVPMVGVVEKPKADVAPSNLAVVGRYVLSADIWPLLAKTPPGAGDEIQLTDAIDMLIEKETVEAYHMKGKSHDCGNKLGYMQAFVEYGIRHKTLGDDFKAWLETAVAK | 2.4 | – |
| KpUGP K10A (enzyme, UDP-glucose pyrophosphorylase (galU gene product) of K. pneumoniae DSM 30104; mutant of Strep-KpUGP; tag as in m1; no cleavage described) MAALNSKVRAAVIPVAGLGTRMLPATKAIPKEMLPLVDKPLIQYVVNECIAAGITEIVLVTHSSKNSIENHFDTSFELEAMLEKRVKRQLLEEVQSICPPHVTIMQVRQGLAKGLGHAVLCAHPVVGDEPVAVILPDVILDEYESDLSRDNLAEMISRFDETGASQIMVEPVEDVTAYGVVDCKGESLKPGESVPMVGVVEKPKADVAPSNLAVVGRYVLSADIWPLLAKTPPGAGDEIQLTDAIDMLIEKETVEAYHMKGKSHDCGNKLGYMQAFVEYGIRHKTLGDDFKAWLETAVAK | 3.1 | – |
| KpUGP E238A (enzyme, UDP-glucose pyrophosphorylase (galU gene product) of K. pneumoniae DSM 30104; mutant of Strep-KpUGP; tag as in m1; no cleavage described) MAALNSKVRKAVIPVAGLGTRMLPATKAIPKEMLPLVDKPLIQYVVNECIAAGITEIVLVTHSSKNSIENHFDTSFELEAMLEKRVKRQLLEEVQSICPPHVTIMQVRQGLAKGLGHAVLCAHPVVGDEPVAVILPDVILDEYESDLSRDNLAEMISRFDETGASQIMVEPVEDVTAYGVVDCKGESLKPGESVPMVGVVEKPKADVAPSNLAVVGRYVLSADIWPLLAKTPPGAGDAIQLTDAIDMLIEKETVEAYHMKGKSHDCGNKLGYMQAFVEYGIRHKTLGDDFKAWLETAVAK | 4.4 | 4 |
| KpUGP E69D (enzyme, UDP-glucose pyrophosphorylase (galU gene product) of K. pneumoniae DSM 30104; mutant of Strep-KpUGP; tag as in m1; no cleavage described) MAALNSKVRKAVIPVAGLGTRMLPATKAIPKEMLPLVDKPLIQYVVNECIAAGITEIVLVTHSSKNSIDNHFDTSFELEAMLEKRVKRQLLEEVQSICPPHVTIMQVRQGLAKGLGHAVLCAHPVVGDEPVAVILPDVILDEYESDLSRDNLAEMISRFDETGASQIMVEPVEDVTAYGVVDCKGESLKPGESVPMVGVVEKPKADVAPSNLAVVGRYVLSADIWPLLAKTPPGAGDEIQLTDAIDMLIEKETVEAYHMKGKSHDCGNKLGYMQAFVEYGIRHKTLGDDFKAWLETAVAK | 4.6 | 4 |
| KpUGP R108A (enzyme, UDP-glucose pyrophosphorylase (galU gene product) of K. pneumoniae DSM 30104; mutant of Strep-KpUGP; tag as in m1; no cleavage described) MAALNSKVRKAVIPVAGLGTRMLPATKAIPKEMLPLVDKPLIQYVVNECIAAGITEIVLVTHSSKNSIENHFDTSFELEAMLEKRVKRQLLEEVQSICPPHVTIMQVAQGLAKGLGHAVLCAHPVVGDEPVAVILPDVILDEYESDLSRDNLAEMISRFDETGASQIMVEPVEDVTAYGVVDCKGESLKPGESVPMVGVVEKPKADVAPSNLAVVGRYVLSADIWPLLAKTPPGAGDEIQLTDAIDMLIEKETVEAYHMKGKSHDCGNKLGYMQAFVEYGIRHKTLGDDFKAWLETAVAK | 2.2 | – |
